Consider 6 molecules from article PMC7782713, “Structural basis of Naa20 activity towards a canonical NatB substrate” (Communications Biology, 2021).

No end group written: not given here. CoA = coenzyme A

In data set [1] the target is T1, CtNaa20 (Thermochaetoides thermophila, UniProt G0SGG4).
T1 construct: gene CTHT_0066240; full length, C-terminal His6 (pET21d), E. coli Rosetta II (DE3); residues 2-190 built in the crystal structure
The data set is described as follows: nanoDSF thermal shift. The class given is binding. Conditions: varying ligand excess; buffer G pH 7.5. Background: In DSF a fluorescence change marks the thermal transition of the protein.

Another data set addresses T2, CtNatB (Thermochaetoides thermophila, UniProt G0SGG4).
T2 construct: gene CTHT_0066240; co-expressed in E. coli Rosetta II (DE3); CtNaa20 with C-terminal His6, CtNaa25 with TEV-cleavable N-terminal His6; with N-alpha-acetyltransferase 25 (N-terminal acetyltransferase B complex auxiliary subunit NAA25)
The data set is described as follows: nanoDSF thermal shift. It is filed as binding. Conditions: 1/64 protein/ligand; buffer G pH 7.5.

Data set [2] concerns the target Chaetomium thermophilum Naa25, auxiliary subunit of NatB, full length (Chaetomium thermophilum). The data set is described as follows: SEC-MALS; Superdex 200 10/300 in buffer G (20 mM HEPES pH 7.5, 200 mM NaCl); CtNatB (0.12 mg, co-expressed and purified as a complex), CtNaa25 (0.13 mg) and CtNaa20 (0.1 mg) injected one after the other. For orientation: SEC sorts molecules by how far they enter the pores of the column.

Data set [3] concerns the target Chaetomium thermophilum Naa20 residues 1-166 (predicted GNAT fold) (Chaetomium thermophilum). The data set is described as follows: ITC; CtNaa20_(1-166) 25-35 uM in the cell, CtNaa25 250-400 uM in the syringe, 20 °C, buffer G (20 mM HEPES pH 7.5, 200 mM NaCl), single-site binding model, triplicates.
The target of data set [4] is Chaetomium thermophilum Naa20, catalytic subunit of NatB, full length (Chaetomium thermophilum).
The target of data set [5] is Chaetomium thermophilum NatB complex (CtNaa25 with CtNaa20) (Chaetomium thermophilum).
Data set [6] concerns the target T3, Chaetomium thermophilum NatB complex (CtNaa25 with CtNaa20) (Chaetomium thermophilum).
T3 chain: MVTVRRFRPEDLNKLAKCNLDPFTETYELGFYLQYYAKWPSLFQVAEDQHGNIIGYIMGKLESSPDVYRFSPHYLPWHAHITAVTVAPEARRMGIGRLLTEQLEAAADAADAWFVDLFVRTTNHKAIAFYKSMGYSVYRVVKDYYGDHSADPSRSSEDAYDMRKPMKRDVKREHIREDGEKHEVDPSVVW
The data set is described as follows: cell-based or functional assay.

Data set [7] has as its target T3, Chaetomium thermophilum NatB complex …. The data set is described as follows: enzyme inhibition kinetics (acetylation microplate assay); 500 nM enzyme; mode of inhibition and inhibitor constant of CoA-Ac-MDEL in the acetylation of MDEL; competitive inhibitor; triplicates. Conditions: both partners purified.
Data set [8] deals with T4, CtNaa20 (Chaetomium thermophilum, UniProt G0SGG4 1-235).
T4 sequence: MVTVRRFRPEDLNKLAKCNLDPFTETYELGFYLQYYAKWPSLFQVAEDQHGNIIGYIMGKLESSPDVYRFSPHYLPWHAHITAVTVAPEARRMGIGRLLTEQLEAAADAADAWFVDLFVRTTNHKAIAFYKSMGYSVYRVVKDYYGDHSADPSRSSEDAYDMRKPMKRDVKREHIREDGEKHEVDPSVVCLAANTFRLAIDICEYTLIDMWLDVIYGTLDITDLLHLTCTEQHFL
In words: EMSA; 5-20 uM protein, 5 uM RNA; 20 mM Tris pH 8, 200 mM NaCl, 10 mM MgCl2, 10 mM KCl, 20% glycerol, 20 C, 30 min; 0.8% agarose gel in 0.5x TB. Conditions: protein: recombinant; tags: C-terminal His6. (In EMSA bound probe runs differently from free probe, usually more slowly.)

In the case of `CC(=O)SCCNC(=O)CCNC(=O)[C@H](O)C(C)(C)COP(=O)(O)OP(=O)(O)OC[C@H]1O[C@@H](n2cnc3c(N)ncnc32)[C@H](O)[C@@H]1OP(=O)(O)O` [AcCoA], the Tm result at CtNaa20 [1] was “Binding of both ligands to CtNatB and CtNaa20 is indicated by protein stabilization”. In addition, the “Tm without to with ligand” value on CtNatB fell in the range of 58 to 62 °C.
One may read the stoichiometry N as a count of units in the complex or per binding partner. As to “Chaetomium thermophilum Naa20, catalytic subunit of NatB, full length (enzyme)”, the stoichiometry N in data set [2] was 1.
Usually Kd stands for a measure of binding affinity in units of concentration. For “Chaetomium thermophilum Naa25, auxiliary subunit of NatB, full length (natural protein)”, in data set [3], the Kd was 0.0178 µM, the dH was 22.6 kJ/mol and the stoichiometry N is 1.
As for MDEL peptide (canonical NatB substrate), the Km for MDEL in the acetylation assay (constant AcCoA, varying MDEL) in data set [4] came to 4400 µM; in data set [5] it was 232 µM.

B1: CoA-Ac-MDEL bisubstrate analog (peptide MDEL joined to coenzyme A through an acetyl bridge) (peptide)
peptide: {CoA-Ac}-MDEL
notes: peptide part of the bisubstrate analog, the canonical NatB substrate MDEL; A tetrapeptide conjugate of 1314 Da; also called MDEL (peptide part M1pD2pE3pL4p); source: synthetic peptide (solid phase), bromo-acetylated and coupled to coenzyme A, purified by reverse phase HPLC
By Ki is commonly meant a measure of affinity in units of concentration, obtained from inhibition or displacement. A lower Ki goes with higher affinity. With B1, the IC50 of the inhibition of acetylation by CtNaa20 alone in data set [4] was found to be 6.5 µM. In addition, in [6], the “half-maximum inhibitor concentration (IC50) of the NatB mediated acetylation of MDEL” value was found to be 1.56 µM. Moreover, the affinity in data set [7] corresponds to a Ki of 0.41 ± 0.14 µM.
Turning to GGGCCUCUAGCCGGGCAACCGGCCGGCGGCUC (structured_RNA) [CtES27 fragment (tip of expansion segment 27)], the binding result with CtNaa20 [8] is reported as “no binding”.
